# Target: CLDN18.2 expressed in mouse healthy stomach tissue (mouse) (UniProt P56857)
# Experiment: flow cytometry, live cells from healthy mouse stomach, antibody 4 µg/ml
Binder,% of positive healthy stomach cells (Average),% of positive healthy stomach cells (Mouse 1),% of positive healthy stomach cells (Mouse 2)
"hCl1a (antibody, human IgG1, kappa, V domains shown) VH: QVQLVQSGAEVKKPGASVKVSCKASGYTFTDYAMHWVRQAPGQRLEWMGWINTYTGKPTYAQKFQGRVTITRDTSASTAYMELSSLRSEDTAVYYCARAVFYGYTMDAWGQGTLVTVSS VL: DIQMTQSPSSLSASVGDRVTITCRASEDIYSNLAWYQQKPGKAPKLLIFSVKRLQDGVPSRFSGSGSGTDFTLTISSLQPEDFATYYCLQGSNFPLTFGQGTKVEIKR",0.75%,1.2%,0.3%
"hCl1b (antibody, human IgG1, kappa, V domains shown) VH: QVQLVQSGAEVKKPGASVKVSCKASGYTFTDYAMHWVRQAPGQRLEWMGWINTYTGKPTYSQKFQGRVTITRDTSASTAYMELSSLRSEDTAVYYCARAVFYGYTMDAWGQGTLVTVSS VL: DIQMTQSPSSLSASVGDRVTITCRASEDIYSNLAWYQQKPGKAPKLLIFSVKRLQDGVPSRFSGSGSGTDFTLTISSLQPEDFATYYCLQGSNFPLTFGQGTKVEIKR",0.565%,1%,0.13%
"cCl1-1 (antibody, V domains shown) VH: QIQLVQSGPELKKPGESVKISCKASGYTFTDYAMHWVKQAPGKGLKWMGWINTYTGKPTYADDFKGRFVFSLEASASTANLQISNLKNEDTATYFCARAVFYGYTMDAWGQGTSVTVSS VL: DIQMTQSPASLSASLGETISIACRASEDIYSNLAWYQQKSGKSPQLLIFSVKRLQDGVPSRFSGSGSGTQYSLKISGMQPEDEGDYFCLQGSNFPLTFGSGTKLEIK",0.35%,0.4%,0.3%

# Other lines, results leading:
% of positive healthy stomach cells (Average),% of positive healthy stomach cells (Mouse 1),% of positive healthy stomach cells (Mouse 2),Binder
0.25%,0.1%,0.4%,"hCl1c (antibody, human IgG1, kappa, V domains shown) VH: QVQLVQSGAEVKKPGASVKVSCKASGYTFTDYAMHWVRQAPGQRLEWMGWINTYTGKPTYSQKFQGRVTITRDTSASTAYMELSSLRSEDTAVYYCARAVFYGYTMDAWGQGTLVTVSS VL: DIQMTQSPSSLSASVGDRVTITCRTSEDIYSNLAWYQQKPGKAPKLLIFAIKRLQDGVPSRFSGSGSGTDFTLTISSLQPEDFATYYCLQGSKFPLTFGQGTKVEIKR"
0.07%,0.04%,0.1%,"hCl1f (antibody, human IgG1, kappa, V domains shown) VH: QVQLVQSGAEVKKPGASVKVSCKASGYTFTDYAMHWVRQAPGQRLEWMGWINAYTGKPTYAQKFQGRVTITRDTSASTAYMELSSLRSEDTAVYYCARAVFYGYTMDAWGQGTLVTVSS VL: DIQMTQSPSSLSASVGDRVTITCRASEDIYSNLAWYQQKPGKAPKLLIYSVKRLQDGVPSRFSGSGSGTDFTLTISSLQPEDFATYYCLQGSNFPLTFGQGTKVEIKR"

# — patent publication US20240034783A1
